This is an account of results in patent publication US20200157519A1.

Substitutions are numbered along the chain they refer to.

The target in the experiment is human fibrinogen (human) (UniProt P02671). Put plainly: single colony ELISA, secreted scFv on coated fibrinogen (negative control antigen), anti-E-tag-HRP.
human fibrinogen (human), sequence (P02671 20-629 limits assumed, chain 1 of 3): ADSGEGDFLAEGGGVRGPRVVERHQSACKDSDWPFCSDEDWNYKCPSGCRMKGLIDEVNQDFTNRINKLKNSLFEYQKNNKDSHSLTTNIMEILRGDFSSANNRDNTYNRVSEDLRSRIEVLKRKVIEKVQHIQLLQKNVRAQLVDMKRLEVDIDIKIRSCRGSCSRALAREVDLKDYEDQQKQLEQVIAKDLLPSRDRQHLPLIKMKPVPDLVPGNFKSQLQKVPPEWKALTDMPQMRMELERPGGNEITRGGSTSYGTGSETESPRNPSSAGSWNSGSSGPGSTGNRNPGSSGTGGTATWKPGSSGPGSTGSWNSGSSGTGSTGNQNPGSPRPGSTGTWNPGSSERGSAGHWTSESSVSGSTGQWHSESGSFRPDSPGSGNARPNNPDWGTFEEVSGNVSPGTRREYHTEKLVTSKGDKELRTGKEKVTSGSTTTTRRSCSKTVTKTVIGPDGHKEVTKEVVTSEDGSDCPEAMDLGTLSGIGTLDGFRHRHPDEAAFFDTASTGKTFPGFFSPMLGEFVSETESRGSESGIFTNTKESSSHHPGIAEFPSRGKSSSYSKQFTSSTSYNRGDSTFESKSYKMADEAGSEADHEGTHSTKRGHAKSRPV
human fibrinogen (human), sequence (P02675 31-491 limits assumed, chain 2 of 3, further chain): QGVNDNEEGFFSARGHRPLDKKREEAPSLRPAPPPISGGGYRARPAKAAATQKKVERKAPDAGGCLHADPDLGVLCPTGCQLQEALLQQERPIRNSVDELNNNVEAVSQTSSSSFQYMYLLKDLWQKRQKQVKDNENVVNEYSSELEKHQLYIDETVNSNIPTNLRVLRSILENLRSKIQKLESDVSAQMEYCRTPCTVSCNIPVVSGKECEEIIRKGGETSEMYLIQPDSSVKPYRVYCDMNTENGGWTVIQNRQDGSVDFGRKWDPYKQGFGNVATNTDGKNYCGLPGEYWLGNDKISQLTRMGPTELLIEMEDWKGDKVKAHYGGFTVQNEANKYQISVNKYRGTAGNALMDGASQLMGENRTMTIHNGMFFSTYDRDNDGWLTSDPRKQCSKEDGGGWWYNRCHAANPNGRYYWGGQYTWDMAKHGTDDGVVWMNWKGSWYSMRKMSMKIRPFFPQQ
human fibrinogen (human), sequence (P02679 other isoform, or with tags, fused parts or gaps limits assumed, chain 3 of 3, further chain): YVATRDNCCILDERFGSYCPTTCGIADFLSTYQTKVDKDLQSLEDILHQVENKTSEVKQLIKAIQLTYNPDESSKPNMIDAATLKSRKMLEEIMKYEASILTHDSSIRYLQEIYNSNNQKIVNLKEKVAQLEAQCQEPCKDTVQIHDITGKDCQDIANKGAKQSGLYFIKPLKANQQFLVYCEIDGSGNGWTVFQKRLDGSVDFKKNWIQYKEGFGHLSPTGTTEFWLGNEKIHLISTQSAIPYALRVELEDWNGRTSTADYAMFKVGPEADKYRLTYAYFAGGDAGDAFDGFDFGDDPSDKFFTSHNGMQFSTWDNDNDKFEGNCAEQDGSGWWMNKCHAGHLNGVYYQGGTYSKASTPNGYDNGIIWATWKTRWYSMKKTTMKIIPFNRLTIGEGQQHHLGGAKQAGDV

B1: phage-displayed 3D5 scFv (scFv)
scFv: DIQMTQSPSSLSASVGDRVTITCRASQDVSNNVAWYQQKPGKAPKLLIFWSPWLYSGVPSRFSGSGSGTDFTLTISSLQPEDFATYYCQQGWDSPVTFGQGTKVEIKRGGGGSGGGGSGGGGSEVQLVESGGGLVQPGGSLRLSCAASGFTISDFGIHWVRQAPGKGLEWVASIWPSGGYTYYADSVKGRFTISADTSKNTAYLQMNSLRAEDTAVYYCARSWFYSWYDYWGQGTLVTVSS
B1 had an OD450 Fibrinogen of 0.0022 OD450.

B2: scFv clone 7A3 (scFv, V domains shown)
VH: EVQLVESGGGLVQPGGSLRLSCAASGFTINDWSIHWVRQAPGKGLEWVAYIGPFWGSTFYADSVKGRFTISADTSKNTAYLQMNSLRAEDTAVYYCARGYFGFDYWGQGTLVTVSS
VL: DIQMTQSPSSLSASVGDRVTITCRASQDVGGWVAWYQQKPGKAPKLLISSPRSLYSGVPSRFSGSGSGTDFTLTISSLQPEDFATYYCQQYFSSPFTFGQGTKVEIKR
As for B2, the OD450 Fibrinogen worked out at 0.0209 OD450.

B3: scFv clone 3C2 (scFv, V domains shown)
VH: EVQLVESGGGLVQPGGSLRLSCAASGFTIGNSSIHWVRQAPGKGLEWVAGIWPYWGSTYYADSVKGRFTISADTSKNTAYLQMNSLRAEDTAVYYCARFGINNDGFMDYWGQGTLVTVSS
VL: B2 VL with G30S, P51T, R52G, F92Y, S93D, S94F, F96I
For B3, the OD450 Fibrinogen is 0.0117 OD450.

B4: scFv clone 8F2 (scFv, V domains shown)
VH: EVQLVESGGGLVQPGGSLRLSCAASGFTINNYGIHWVRQAPGKGLEWVAGIWPYWGYTYYADSVKGRFTISADTSKNTAYLQMNSLRAEDTAVYYCARFDSNSYSSYSDGFMDYWGQGTLVTVSS
VL: B2 VL with G30D, G31N, W32S, P51A, F92Y, S93N, S94Y, F96I
B4 showed an OD450 Fibrinogen of 0.0366 OD450.
